Test results from PMC12430012.

Target: GST-α-synuclein, P37840
Assay: GST pull-down (glutathione agarose), western blot, ImageJ quantification
Conditions: chain shown with the change; E. coli lysates, in vitro; parent: est. 1.0; read off a plot

Row | Binder | ratio to parent
1 | His6-DNAJB11 WT, Q9UBS4 T188A (protein) GRDFYKILGVPRSASIKDIKKAYRKLALQLHPDRNPDDPQAQEKFQDLGAAYEVLSDSEKRKQYDTYGEEGLKDGHQSSHGDIFSHFFGDFGFMFGGTPRQQDRNIPRGSDIIVDLEVTLEEVYAGNFVEVVRNKPVARQAPGKRKCNCRQEMRTTQLGPGRFQMAQEVVCDECPNVKLVNEERTLEVEIEPGVRDGMEYPFIGEGEPHVDGEPGDLRFRIKVVKHPIFERRGDDLYTNVTISLVESLVGFEMDITHLDGHKVHISRDKITRPGAKLWKKGEGLPNFDNNNIKGSLIITFDVDFPKEQLTEEAREGIKQLLKQGSVQKVYNGLQGY | 0.8
2 | His6-DNAJB11 WT, Q9UBS4 T188E (protein) GRDFYKILGVPRSASIKDIKKAYRKLALQLHPDRNPDDPQAQEKFQDLGAAYEVLSDSEKRKQYDTYGEEGLKDGHQSSHGDIFSHFFGDFGFMFGGTPRQQDRNIPRGSDIIVDLEVTLEEVYAGNFVEVVRNKPVARQAPGKRKCNCRQEMRTTQLGPGRFQMEQEVVCDECPNVKLVNEERTLEVEIEPGVRDGMEYPFIGEGEPHVDGEPGDLRFRIKVVKHPIFERRGDDLYTNVTISLVESLVGFEMDITHLDGHKVHISRDKITRPGAKLWKKGEGLPNFDNNNIKGSLIITFDVDFPKEQLTEEAREGIKQLLKQGSVQKVYNGLQGY | 4.9
